In the supplement of paper PMC9170038:

Tested on: MS2 coat protein
Assay: apparent KD of MS2 coat protein; designed switch direction (-1 OFF switch, 1 ON switch): -1; higher = weaker reporter binding
Summary of the method: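 Transcription of designed RNA switches on Illumina chips was done by stalled E. coli RNA polymerase. SNAP-549-labelled MS2 coat protein was then titrated in doubling steps from 0.7 or 1.5 nM to 3 µM, with steps of 0.8–1.5 h at the lowest and 10–20 min at the highest concentration. The per-design median over clusters of curve-fitted normalised fluorescence is reported as apparent KD.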

[1] = Eterna round: R95, input ligand: FMN 200 uM
[2] = Eterna round: R95, input ligand: microRNA oligo, concentration not stated
[3] = Eterna round: R95, input ligand: none
[4] = input ligand: microRNA oligo, concentration not stated

| Sequence | apparent KD of MS2 coat protein (input ligand: FMN 200 uM) [nM] | apparent KD of MS2 coat protein (input ligand: none) [nM] | apparent KD of MS2 coat protein [1] [nM] | apparent KD of MS2 coat protein [2] [nM] | apparent KD of MS2 coat protein [3] [nM] | apparent KD of MS2 coat protein [4] [nM] |
| --- | --- | --- | --- | --- | --- | --- |
| GUUUUCAGACGGAGAUCCUACAUGAGGAUCACCCAUGUCUCACUAGUUUUUUGCUCGUCUUAUCCUCCUCUGUUCUC [Elimod 29 - Jieux - Sensor, turn-off variant 1] (Eterna round: R97, puzzle: Sensor, turn-off variant 1) | 413 | 926 | – | – | – | – |
| AUAAUGUGAGGAUAUCAGUCGACUAGCGAUAGCUAGUCGACUGAGAAGGUACAUGAGGAUCACCCAUGUAGAUC [E4/20-A4] (Eterna round: R97, puzzle: Exclusion 4) | 70.6 | 31 | – | – | – | – |
| AGUACUAACACGAAAGUGUUCGUACAAUAAGCUUGUGAAACAUGAGGAUCACCCAUGUCCUCAUAAGCUCGUCUUAU [salish99_TOv2_r3_037] (puzzle: Sensor v3, turn-off variant 2) | – | – | 16.6 | 810 | 15.6 | – |
| CUUCUGUCAGGAUAUGCGAAUCACCGCUGGGUCAGCGGCGAGCAGAAGGGACAUGAGGAUCACCCAUGUAAAAU [Quriveer] (Eterna round: R97, puzzle: Exclusion 4) | 211 | 51.3 | – | – | – | – |
| CCGAGCAGACGGAGAUCCAACAUGAGGAUCACCCAUGUCUCAAAAGCUUUUUGCUCGUCUUAUCCUCCUCUGUUCUC [Legedi] (puzzle: Sensor v3, turn-off variant 1) | – | – | 27.6 | 200 | 25.7 | – |
| UUAUUGUAUGUAGGAUAUGCGUAUUAUUAUUGGGCAGAAGGACAUGAGGAUCACCCAUGUAUGUUGUUGUUAUAUAUUAUAUAU [Title] (Eterna round: R96, puzzle: Exclusion NG 1) | 61 | 47.6 | – | – | – | 39.3 |
| AAAAAGGUAGGAUAUACGAAAAAAAAGGGUAGAAAAAAAACACAUGAGGAUCACCCAUGUAGAAGGACCAAAAA [salish99_ex2_r3_043] (puzzle: Exclusion 2) | – | – | 97.3 | 26.8 | 26.1 | – |
| AAUACAAGCUAUUGAUCCCACAUGAGGAUCACCCAUGUAGGAGGCGGUGACACCUCCUUUACGAUAGCUCGUCUUAU [Sensor-V1 #53] (Eterna round: R97, puzzle: Sensor, turn-off variant 1) | 213 | 219 | – | – | – | – |
| GGUACUCAAAGAGUACCAAUACGAACAUGAGGAUCACCCAUGUAGGAUAUGCUACUCAAAGAGUAGCAGAAGGACAUGUGCCUU [Far Half Aptamer v5] (Eterna round: R96, puzzle: Exclusion NG 3) | 254 | 29.5 | – | – | – | 25.3 |
| GCGACGCUACAUGAGGAUCACCCAUGUCCUCACAUGAGAUGGUAGGAUAUUAUAUAUACAUUGUGUGAGAAGGAUCAUCGCCCA [Eternabot solution 2] (Eterna round: R96, puzzle: Exclusion NG 3) | 351 | 121 | – | – | – | 74.8 |
| AAAUAGGCAGGAUAUACAUGAGGAUCACCCAUGUAAAUUUUUCGUUUAACUUGAAUGUGUAGAAGGGCCAUAAA [Ex3 #54] (Eterna round: R97, puzzle: Exclusion 3) | 27.4 | 26.8 | – | – | – | – |
| AGAAAUGCCCAUGGCCACAAGCUUUUCGCUUGUCUUACUACAUGAGGAUCACCCAUGUAACAUGGGCUCCUGAUAAU [Resoriraqu] (puzzle: Sensor v3, turn-off variant 2) | – | – | 12.5 | 11 | 12 | – |
| AGUAAGCUAGGAUAUGCUUAGGGAAAGCCUUCCUUCCACAAACUUGAGGAUCACCCAAGUAGAAGGAGCUAAAU [jl-ex2.4.46 ViennaUCT mod] (Eterna round: R97, puzzle: Exclusion 2) | 15.4 | 13.5 | – | – | – | – |
| GGGUGUGCUAAGGAUAUCGGACCAUCGGGUAACUGAGAAGGUAGCACAUGAGGAUCACCCAUGUGUAACUUGAU [EX6 B.12] (Eterna round: R97, puzzle: Exclusion 6) | 159 | 16 | – | – | – | – |
| UCUGUUUUGCGAGGAUAUCGACCAUUCCUCUUAACAUGAGGAUCACCCAUGUGCUAAUCCUACAACGAGAAGGCGCUCAUACUC [JR_ExcNG2_Sub066] (Eterna round: R96, puzzle: Exclusion NG 2) | – | – | – | – | – | 195 |
| CCGCAAAUGCAGGAUAUCGUAUCGGAUACGAUACGAGAAGGGUAUACAUGAGGAUCACCCAUGUGUCCUAGCGG [Fiskers Ex 6 - 45] (puzzle: Exclusion 6) | – | – | 23.9 | 20.3 | 21.5 | – |
| ACUUACUGAGGAUAUACAUAGAUUUACAUGAGGAUCACCCAUGUUCCUCUUUGUAUAAAUGUAGAAGGCAGAAGAU [Mat - Exclusion 5 - JL Mod - D59] (Eterna round: R97, puzzle: Exclusion 5) | 183 | 96.5 | – | – | – | – |

| Sequence | apparent KD of MS2 coat protein (input ligand: FMN 200 uM) [nM] | apparent KD of MS2 coat protein (input ligand: none) [nM] | apparent KD of MS2 coat protein [1] [nM] | apparent KD of MS2 coat protein [2] [nM] | apparent KD of MS2 coat protein [3] [nM] | apparent KD of MS2 coat protein [4] [nM] |
| --- | --- | --- | --- | --- | --- | --- |
| AACAAUAAGGAGGAUAUCGUAUCGGAAACGAUACGAGAAGGCUUAACAUGAGGAUCACCCAUGUUCCUCAAUAA [Fiskers Ex 6 - 23] (puzzle: Exclusion 6) | – | – | – | 33.1 | – | – |
| UAAGAGUGAGGAUAUACGUCGCUGGCCCGGAUGGACGCAUGACAUGAGGAUCACCCAUGUAGAAGGCACAAAAC [Enxela Mod 14 - Jieux - Exclusion 2] (Eterna round: R97, puzzle: Exclusion 2) | 34.7 | 29.7 | – | – | – | – |
| CUGAGCUGACGGAGAUCCAACAUGAGGAUCACCCAUGUCUCAAAAGCUUUUUGCUCGUCUUAUCCUCCUCAGUUCAC [Mat - Sensor, turn-off var - Eli Mod - D55] (Eterna round: R97, puzzle: Sensor, turn-off variant 1) | 26.5 | 22.6 | – | – | – | – |
| AGUACUAACACGAAAGUGUUAGUACUAUAAGCUUGUGUUACAUGAGGAUCACCCAUGUCCUCAUAAGCUCGUCUUAU [JL-sv3-2.15 mat747 mod] (puzzle: Sensor v3, turn-off variant 2) | – | – | 86.4 | 31.8 | 115 | – |
| AAUGGUAAAGUCAGGAUAUACGUACGUCGUUCUAGGUAGAAGGGACAUGAGGAUCACCCAUGUAUGAUAGUAAA [Ex4 #34] (Eterna round: R97, puzzle: Brourd's mod of Exclusion 4) | 24.1 | 32.9 | – | – | – | – |
| UAAAGUAUAUAGGAUAUCUAGCUGGAUACAGCUAGAGAAGGAUGUACAUGAGGAUCACCCAUGUAGAUCUCAAA [Ex6/15-A1] (Eterna round: R97, puzzle: Exclusion 6) | 17.4 | 14.8 | – | – | – | – |
| GGUCAUCAAGUCAGGAUAUCGUCAAAUCAAUCAGGCGAGAAGGGACAUGAGGAUCACCCAUGUCGACUCAUCAC [Ex4 #4] (Eterna round: R97, puzzle: Brourd's mod of Exclusion 4) | 117 | 31.2 | – | – | – | – |
| GAUUCGGGAGGAUAUACAUGAGGAUCACCCAUGUAUAUAUAAUAUAAUAAAUUAAAAUGUAGAAGGUUUGGGUC [-13.5, -9.6 kcal, 38% A] (Eterna round: R97, puzzle: Exclusion 3) | 22.8 | 23.2 | – | – | – | – |
| GGACCGUGAGGAUAUAGAGGUCGCGUCAUAGGGCGUGGUUACUAGAAGGCACAUGAGGAUCACCCAUGUUCAUC [Eternabot (L1) Solution 7] (Eterna round: R97, puzzle: Exclusion 4) | 50.4 | 19.7 | – | – | – | – |
| UAAAAGCGAGGAUAUACAAACAGGUCCAAAACAUGUCUUGGACAUGAGGAUCACCCAUGUAGAAGGCGUAAAAG [Anleain] (Eterna round: R97, puzzle: Exclusion 2) | 558 | 90.6 | – | – | – | – |
| UUUUAACAUGAGGAUCACCCAUGUGAGGAUAUCGAAAUUUUUAUUAAUAUUAAUAAAACGAGAAGGCACAUUUU [JMF 12] (puzzle: Exclusion 1) | – | – | – | 58.3 | – | – |
| UGUUAGAUGGUAGGAUAUCCAUAUCGAGUGACCCUUUCAUAACAUGAGGAUCACCCAUGUCGGUGGGAGAAGGGCCGUAUGGUG [salish99_ExNG02_R04_031] (Eterna round: R96, puzzle: Exclusion NG 2) | 18 | 22.7 | – | – | – | 15.8 |
| GCACGGAGUGUAGGAUAUCUGUGCGAUUAGCUCAGAGAAGGACACAUGAGGAUCACCCAUGUUACCUCAAUUAGCCUUCCGUGC [Eli exng1 - 032] (Eterna round: R96, puzzle: Exclusion NG 1) | 30.4 | 19 | – | – | – | 17 |
| UUAGGCGUCAUUGCUCGUCUUUUAUGGAGAUGACUGUUAACAUGAGGAUCACCCAUGUGUGUGGGAGCUUUGCAGUU [JR_SV3TOV2_Sub023] (puzzle: Sensor v3, turn-off variant 2) | – | – | 213 | 568 | 270 | – |
| GUGUAGGCAGGAUAUACAUGAGGAUCACCCAUGUGAAUAAGAUAGAAUAAGAUAAAGUGUAGAAGGGUUAGUGU [Excluse me!!! 23 - Jieux - Exclusion 3] (puzzle: Exclusion 3) | – | – | – | 31.7 | – | – |
| ACGAUGACUGAAAAGUGUAAACUGACAUGAGGAUCACCCAUGUAGGAUAUGGCUACGAAAAGUAGUCAGAAGGGCAUGUCAUCA [Omei Exc(NG) 3 Av10] (Eterna round: R96, puzzle: Exclusion NG 3) | 14.3 | 17.1 | – | – | – | 13.4 |
